{"source": "paper doi:10.1101/2021.08.01.454623", "binders": {"B1": {"name": "biotinylated 58rRNA (structured_RNA)", "RNA": "GCCAGGAUGUAGGCUUAGAAGCAGCCAUCAUUUAAAGAAAGCGUAAUAGCUCACUGGU"}}, "molecular_target": "CL11 (ribosomal protein L11 C-terminal domain, wild type) (Bacillus stearothermophilus, UniProt P56210 59-133)", "sequence (P56210 59-133)": "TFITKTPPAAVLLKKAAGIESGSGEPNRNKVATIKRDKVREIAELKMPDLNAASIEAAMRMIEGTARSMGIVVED", "assay": "SPR"}
{"binder": "B1", "values": [{"measurement": "Kd", "value": 2.4, "unit": "nM"}]}
